From article doi:10.1101/2021.06.22.449466 (bioRxiv, 2021)
Read-outs that look alike come from different tables or passages of the source.

Tests used:
[1] = molecular target: T1, Human RPA (heterotrimeric RPA complex: RPA70, RPA32 and RPA14 subunits) (human, UniProt P27694;P15927;P35244); assay: BLI
[2] = molecular target: T1, Human RPA (heterotrimeric RPA complex: …); assay: BLI; remark: listed apart in the source

T1 sequence (P27694 whole entry, chain 1 of 3): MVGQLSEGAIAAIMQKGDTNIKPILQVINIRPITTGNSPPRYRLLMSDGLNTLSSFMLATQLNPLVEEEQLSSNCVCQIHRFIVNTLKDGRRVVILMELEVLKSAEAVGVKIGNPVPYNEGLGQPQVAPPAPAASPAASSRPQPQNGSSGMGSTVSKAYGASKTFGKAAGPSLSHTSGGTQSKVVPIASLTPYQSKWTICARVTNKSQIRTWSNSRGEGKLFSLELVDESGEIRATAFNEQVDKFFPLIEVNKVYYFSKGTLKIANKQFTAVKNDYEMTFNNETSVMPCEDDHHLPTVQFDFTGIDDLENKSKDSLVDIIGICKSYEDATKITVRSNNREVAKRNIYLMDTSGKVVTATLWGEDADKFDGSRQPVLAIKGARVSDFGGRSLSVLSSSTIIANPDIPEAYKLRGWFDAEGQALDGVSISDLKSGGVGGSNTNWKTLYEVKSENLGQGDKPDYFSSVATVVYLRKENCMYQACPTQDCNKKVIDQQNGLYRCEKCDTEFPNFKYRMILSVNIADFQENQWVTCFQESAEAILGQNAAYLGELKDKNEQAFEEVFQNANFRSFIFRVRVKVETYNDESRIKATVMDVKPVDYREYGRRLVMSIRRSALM
T1 sequence (P15927 whole entry, chain 2 of 3): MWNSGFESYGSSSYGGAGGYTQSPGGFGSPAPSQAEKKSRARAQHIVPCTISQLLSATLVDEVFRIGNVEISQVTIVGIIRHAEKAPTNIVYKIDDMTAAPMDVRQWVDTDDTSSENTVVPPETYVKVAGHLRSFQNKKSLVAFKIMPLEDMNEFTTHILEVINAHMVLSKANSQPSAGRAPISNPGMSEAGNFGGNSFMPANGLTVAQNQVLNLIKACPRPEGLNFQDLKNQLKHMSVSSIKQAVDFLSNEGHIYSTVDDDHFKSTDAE
T1 sequence (P35244 whole entry, chain 3 of 3): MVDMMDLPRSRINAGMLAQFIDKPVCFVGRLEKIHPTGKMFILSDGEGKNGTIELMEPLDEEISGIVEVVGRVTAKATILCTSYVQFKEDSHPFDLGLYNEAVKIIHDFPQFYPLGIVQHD

B1: Lamin-C (amino acid residues 1-152) (domain or fragment)
chain: METPSQRRATRSGAQASSTPLSPTRITRLQEKEDLQELNDRLAVYIDRVRSLETENAGLRLRITESEEVVSREVSGIKAAYEAELGDARKTLDSVAKERARLQLELSKVREEFKELKARNTKKEGDLIAAQARLKDLEALLNSKEAALSTAL
[1]
  Kd: 1.5 µM
[2]
  Kd: 35 µM
